Article PMC2196413 (The Journal of Cell Biology, 2001)
Each block holds one binder with its values, some of them ahead of it.

Biological target: T1, GST fusion protein with the cytoplasmic domain of JAM (human, UniProt Q9Y624 260-299)
T1 chain (looked up): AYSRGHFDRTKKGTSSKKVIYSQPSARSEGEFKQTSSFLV
Assay: pull-down

- Kd: 75 nM
B1: MBP-PDZ1/2/3–PAR-3 (domain or fragment)
chain: MVKLVQVPNDGGPLGIHVVPFSARGGRTLGLLVKRLEKGGKAEQENLFHENDCIVRINDGDLRNRRFEQAQHMFRQAMRARVIWFHVVPAANKEQYEQLSQREMNNYSPGRFSPDSHCVANRSVANNAPQALPRAPRLSQPPEQLDAHPRLPHSAHASTKPPTAPALAPPNVLSTSVGSVYNTKRVGKRLNIQLKKGTEGLGFSITSRDVTIGGSAPIYVKNILPRGAAIQDGRLKAGDRLIEVNGVDLAGKSQEEVVSLLRSTKMEGTVSLLVFRQEEAFHPREMNAEPSQMQSPKETKAEDEDIVLTPDGTREFLTFEVPLNDSGSAGLGVSVKGNRSKENHADLGIFVKSIINGGAASKDGRLRVNDQLIAVNGESLLGKANQEAMETLRRSMSTEGNKRGMIQ

- Kd: 110 nM
B2: MBP fusion protein with NH2-terminal half of ZO-1 (domain or fragment)
chain: MSARAAAAKSTAMEETAIWEQHTVTLHRAPGFGFGIAISGGRDNPHFQSGETSIVISDVLKGGPAEGQLQENDRVAMVNGVSMDNVEHAFAVQQLRKSGKNAKITIRRKKKVQIPVSHPDPEPVSDNEDDSYDEEVHDPRAGRGALANRRSEKSWARDRSASRERSLSPRSDRRSVASSQPAKPTKVTLVKSRKNEEYGLRLASHIFVKEISQDSLAARDGNIQEGDVVLKINGTVTENMSLTDAKTLIERSKGKLKMVVQRDERATLLNVPDLSDSIHSANASERDDISEIQSLASDHSGRSHDRPPRRSQSRSPDQRSEPSDHSTQSPQQPSNGSLRSREEERMSKPGAISTPVKHVDDHPPKAVEEVTVEKNEKQTPTLPEPKPVYAQVGQPDVDLPVSPSDGALPNSAHEDGILRPSMKLVKFRKGDSVGLRLAGGNDVGIFVAGVLEDSPAAKEGLEEGDQILRVNNVDFTNIIREEAVLFLLDLPKGEEVTILAQKKKDVYRRIVESDVGDSFYIRTHFEYEKESPYGLSFNKGEVFRVVDTLYNGKLGSWLAIRIGKNHKEVERGIIPNKNRAEQLASVQYTLPKTAGGDRADFWRFRGLRSSKRNLRKSREDLSAQPVQTKFPAYERVVLREAGFLRPVTIFGPIADVAREKLAREEPDIYQIAKSEPRDAGTDHRSSGIIRLHTIKQIIDQDKHALLDVTPNAVDRLNYAQWYPIVVFLNPDSKQGVKTMRMRLCPESRKSARKLYERSHKLRKNNHHLFTTTINLNSMNDGWYGALKEAIQQQQNQLVWVSEGKADGATSDDLDLHDDRLSYLSAPGSEYSMYSTDSRHTSDYEDTDTEGGAYTDQELDETL
